Assays:
Test in all cases: MST
XPA DBD WT = XPA DBD WT (Homo sapiens, UniProt P23025 98-239)
XPA DBD Y148D = XPA DBD Y148D (Homo sapiens, UniProt P23025 98-239, Y148D)
XPA DBD M113I = XPA DBD M113I (Homo sapiens, UniProt P23025 98-239, M113I)
XPA DBD D114Y = XPA DBD D114Y (Homo sapiens, UniProt P23025 98-239, D114Y)
XPA DBD F112C = XPA DBD F112C (Homo sapiens, UniProt P23025 98-239, F112C)
XPA DBD R130I = XPA DBD R130I (Homo sapiens, UniProt P23025 98-239, R130I)
Chain of XPA DBD R130I (P23025 98-239 R130I): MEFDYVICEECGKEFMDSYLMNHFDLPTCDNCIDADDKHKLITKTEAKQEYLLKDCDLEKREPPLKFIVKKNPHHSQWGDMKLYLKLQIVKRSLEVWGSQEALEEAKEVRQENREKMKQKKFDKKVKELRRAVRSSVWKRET

Chain of XPA DBD F112C (P23025 98-239 F112C): as the sequence (P23025 98-239 R130I) above, with F15C, I33R counted along it
Chain of XPA DBD WT (P23025 98-239): as the sequence (P23025 98-239 R130I) above, with I33R counted along it
Chain of XPA DBD D114Y (P23025 98-239 D114Y): as the sequence (P23025 98-239 R130I) above, with D17Y, I33R counted along it
Chain of XPA DBD Y148D (P23025 98-239 Y148D): as the sequence (P23025 98-239 R130I) above, with I33R, Y51D counted along it
Chain of XPA DBD M113I (P23025 98-239 M113I): as the sequence (P23025 98-239 R130I) above, with M16I, I33R counted along it

## TTTTGCGGCCGCTTTTGCGGCCGC (structured_DNA) [NER junction mimic hairpin, 8 bp with 4 nt overhang]
XPA DBD WT
  Kd: 7.7 ± 3.7 µM
XPA DBD Y148D
  binding result: no binding
XPA DBD M113I
  Kd: 12 ± 1.9 µM
XPA DBD D114Y
  Kd: 8.8 ± 1.7 µM
XPA DBD F112C
  Kd: 9.2 ± 2.2 µM
XPA DBD R130I
  Kd: 38 ± 22 µM
